This is an account of results in paper PMC9174178 (Cell Reports, 2022).

The chains are these.
B1: psNb 2-57 (VHH)
VHH: QVQLVESGGGLVQAGGSLRLSCAVSGRTISTFGMGWFRQAPGKEREFVATITRDEDMLLYADSVKGRFTISRDTAKNMVFLQMNSLKIEDTALYYCAVRRDSSWGYSRQSTEYDYWGQGTQVTVSS
B2: psNb 1-22 (VHH)
VHH: HVQLVESGGGLVQPGGSLRLSCAASGRSFNSYLMGWFRQAPGKEREFVAWISGSPHDIIRYRDSVKDRFTISRDNAKNTVYLQMNSLKPVDTAVYYCAVGSLRVGSFSPDYWGQGTQVTVSS
B3: psNb 2-38 (VHH)
VHH: QVQLVESGGGLVQAGGSLRLSCAAAARFSTSAMGWFRQAPGKEREFVAAISWSNTNTHYADTVKGRFTISADTAKETVDLQMNSLKPEDTAVYYCVQGGWGIRQPIIVDYWGKGTQVTVSS
B4: psNb 2-65 (VHH)
VHH: HVQLVESGGGLVQAGGSLRLSCAASGTISTLNAMGWYRQAPGKQRELLASISNLGTTYHADSVAGRFTISRGSAKNTVNLQMNSLKPDDTAVYYCNTRVLEGGTQIRDYWGQGTQVTVSS
B5: psNb 1-8 (VHH)
VHH: QVQLVESGGGLVQTGGSLRLSCAASGRTFSNYVMGWFRQAPGKEREFVSSIEWNSENTFYANSVKGRFTISRDNAKNTVYLQMNSLKAEDTAVYYCAADRGSSYYYTRASEYTYWGQGTQVTVSS
B6: psNb 2-34 (VHH)
VHH: HVQLVESGGGLVQAGGSLRLSCAASGRTFSRYAAGWFRQAPGKEREFVAVIEWDGDSAYYADPVKGRFTISRDNAKNTVYLQMNRLKPEDTAVYICAVGGNHYSRSKYYNLDEYDDWGQGTQVTVSS
B7: psNb 2-67 (VHH)
VHH: EVQLVESGGGLVQTGGSLRLSCALSGYTFSIFPTAWFRQAPGKEREFVAGIRWNGSTRDYTEYADFVKGRFTISRDNAKNMVYLQMISLKPEDTALYYCAASDGVIDGTNANAYRYWGQGTQVTVSS
B8: psNb 2-45 (VHH)
VHH: QVQLVESGGGLVQAGGSLRLSCTASGYDFSILAIAWYRQAPGKERELVAAISRVGSTDYADSVKGRFTISRDNTKNTVSLQMDSLKPEDTAVYYCNAGIPMTTVLSGLGFWGQGTQVTVSS
B9: psNb 1-23 (VHH)
VHH: QVQLVESGGGLVQAGGSLRLSCAASGRTDSISDMGWFRQAPGKEREFVAVVGWSGGGTDYAHSVKGRFTISRDNAKNTVYLQMNSLKPEDTAVYYCAVGSLRVGSFSVEYWGQGTQVTVSS

In the assay the target is SARS-CoV-2 spike HexaPro (S) (SARS-CoV-2 (Wuhan-Hu-1), UniProt P0DTC2, stabilised). The assay can be described thus: cryo-EM structure.
As to B1, the binding result was “binds”. The result for B2 reads “binds”.

As to B3, the binding result is “binds”. The result for B4 reads “binds”; that for B5, “binds”. The value for B6 was “binds”; that for B7 was “binds”. For the molecule B8, the binding result is listed as “binds”. The result for B9 reads “binds”.
